One assay deals with T1, hCD137-mFc-Avi (human, UniProt Q07011 24-186).
T1 construct: dimer; also called human CD137-mFc-Avi; human CD137-mFc
The assay can be described thus: ELISA, hCD137-mFc-Avi coated, 100 nM antibody, competitor CD137L-His; normalised to G1/11D4 = 0 and G1/MOR7480.1 = 100; mean of n=2. On the procedure:
The following day, plates were washed with PBST (PBS+0.05% Tween20™) and blocked with PBS+1% BSA (Sigma, A3059-500G) for 1 hour at room temperature with agitation. After blocking, the plates were washed again with PBST. A 100 nM dilution of each test antibody was prepared in PBS+1% BSA and added to the CD137-coated plates and incubated for 1 hour at room temperature with agitation. […] The plates were then washed with PBST and then incubated with anti-his secondary antibody (R&D Systems, MAB050H) at a 1 in 1000 dilution in PBS for 1 hour at room temperature with agitation. The plates were then washed with PBST and incubated with TMB detection reagent (Thermo Fisher Scientific, 002023) until the positive control wells turned blue and then the reaction was stopped with the addition of 2N H_2SO_4. Plates were read at 450 nm using the plate reader with Gen5 Software, BioTek. Absorbance values of 630 nm were subtracted from those of 450 nm (Correction). The subtracted absorbance values were plotted vs the log concentration of antibody and the resulting curves were fitted using the log (inhibitor) vs response equation in GraphPad Prism.
Background: An ELISA detects its analyte on a solid surface through an enzyme-linked reagent.

For assay [1], the target named is T2, cyno CD137 on DO11.10-cCD137 cells (cynomolgus, UniProt Q07011 24-255 (human entry)).
T2 chain: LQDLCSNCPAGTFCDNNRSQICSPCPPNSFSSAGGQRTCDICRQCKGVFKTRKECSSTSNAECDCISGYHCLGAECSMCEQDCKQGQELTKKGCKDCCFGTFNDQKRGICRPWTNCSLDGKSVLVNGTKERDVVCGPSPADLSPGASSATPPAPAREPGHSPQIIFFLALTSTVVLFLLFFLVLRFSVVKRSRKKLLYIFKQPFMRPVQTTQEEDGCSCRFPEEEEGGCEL
The assay is described as follows: cell-based or functional assay.

For a further assay, the target named is T3, GITR-hFc-Avi (human, UniProt Q9Y5U5 26-161).
T3 construct: in-house produced; not shown: hFc and Avi part
T3 sequence: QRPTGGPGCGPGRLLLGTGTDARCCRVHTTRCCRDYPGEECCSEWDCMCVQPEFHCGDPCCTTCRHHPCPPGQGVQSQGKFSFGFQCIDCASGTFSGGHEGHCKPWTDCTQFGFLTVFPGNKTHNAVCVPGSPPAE
The assay can be described thus: SPR, antigen immobilised on CM5 chip.

In another assay the target is T4, NGFR-Fc (human, UniProt P08138 29-250).
T4 construct: bought; also called NGFR (R&D Systems, 367-NR-050/CF); not shown: Fc part of the bought fusion
T4 sequence (looked up): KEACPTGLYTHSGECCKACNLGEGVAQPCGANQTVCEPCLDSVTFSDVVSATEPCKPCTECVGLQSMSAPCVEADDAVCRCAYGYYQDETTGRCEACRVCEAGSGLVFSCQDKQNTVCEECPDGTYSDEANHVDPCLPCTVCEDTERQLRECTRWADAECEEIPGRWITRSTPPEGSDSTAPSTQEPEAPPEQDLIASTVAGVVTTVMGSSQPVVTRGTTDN
The assay is described as follows: SPR, antigen immobilised on CM5 chip. Background: SPR reads the build-up and loss of mass on a sensor chip optically.

The next assay deals with T5, CD40-mFc (human, UniProt P25942 21-193).
T5 construct: in-house produced; not shown: mFc part
The assay is described as follows: SPR, antigen immobilised on CM5 chip.

In the next assay the target is T6, DR6-Fc (human, UniProt O75509 42-349, limits assumed).
T6 construct: bought; also called human DR6 (R&D Systems, 144-DR-100); not shown: Fc part of the bought fusion
T6 sequence (looked up): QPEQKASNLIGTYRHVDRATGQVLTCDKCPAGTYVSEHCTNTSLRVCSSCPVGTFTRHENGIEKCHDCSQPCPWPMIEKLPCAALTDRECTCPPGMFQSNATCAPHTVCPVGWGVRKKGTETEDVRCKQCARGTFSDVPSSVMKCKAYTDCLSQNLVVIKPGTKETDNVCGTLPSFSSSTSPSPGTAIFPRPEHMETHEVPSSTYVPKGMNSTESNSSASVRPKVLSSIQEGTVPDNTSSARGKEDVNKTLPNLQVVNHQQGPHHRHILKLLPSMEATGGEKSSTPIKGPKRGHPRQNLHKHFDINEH
The assay can be described thus: SPR, antigen immobilised on CM5 chip.

The target of the next assay is T7, TNFRSF1B-Fc (human, UniProt P20333 23-257).
T7 construct: bought; also called TNFRSF1B (R&D Systems, 726-R2-050); not shown: Fc part of the bought fusion
T7 sequence (looked up): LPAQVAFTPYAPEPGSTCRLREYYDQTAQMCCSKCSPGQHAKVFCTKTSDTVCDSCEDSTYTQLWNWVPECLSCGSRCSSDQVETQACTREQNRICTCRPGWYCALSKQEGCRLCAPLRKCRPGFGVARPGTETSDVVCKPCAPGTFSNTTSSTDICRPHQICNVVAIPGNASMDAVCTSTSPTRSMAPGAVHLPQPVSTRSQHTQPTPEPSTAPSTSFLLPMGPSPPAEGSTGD
The assay is described as follows: SPR, antigen immobilised on CM5 chip.

The next assay deals with T8, TNFRSF1A-Fc (human, UniProt P19438 30-211, limits assumed).
T8 construct: bought; also called TNFRSF1A (R&D Systems, 372-RI-050/CF); not shown: Fc part of the bought fusion
T8 sequence (looked up): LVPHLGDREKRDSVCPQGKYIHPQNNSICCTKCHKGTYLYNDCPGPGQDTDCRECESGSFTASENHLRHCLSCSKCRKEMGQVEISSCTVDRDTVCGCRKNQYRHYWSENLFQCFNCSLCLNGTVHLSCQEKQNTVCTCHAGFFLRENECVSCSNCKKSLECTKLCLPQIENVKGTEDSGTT
The assay can be described thus: SPR, antigen immobilised on CM5 chip.

Assay [2] addresses human CD137 on DO11.10-hCD137 cells (human, UniProt Q07011 24-255). The assay is described as follows: cell-based or functional assay.

These results are taken from patent publication US12534534 (F STAR BETA, dated 2026).

B1: FS20-22-49AA/FS30-5-37 (bispecific antibody, human IgG1, kappa, L234A L235A, V domains shown)
VH: EVQLLESGGGLVQPGGSLRLNCAASGFTFSSYAMSWVRQAPGKGLEWVSAISGSGGSTYYADSVKGRFTISRDNSKNTLYLQMNSLRAEDTAVYYCARSYDKYWGSSIYSGLDYWGQGTLVTVSS
VL: EIVLTQSPGTLSLSPGERATLSCRASQSVSSSYLAWYQQKPGQAPRLLIYGASSRATGIPDRFSGSGSGTDFTLTISRLEPEDFAVYYCQQYYSYYPVTFGQGTKVEIKR
notes: M100D to I and M100H to L against FS30-5; also called FS30-5-37 in mAb^2 format
With B1, in the assay with hCD137-mFc-Avi, the “% CD137 ligand blocking activity” value came out at 107%. Also, the “EC50 (nM), mIL-2 release, DO11.10-cCD137 T cell assay, crosslinked (mean of n = 2)” value (shortened to “EC50 (nM), mIL-2 release”) in [1] is 7.5 nM. Further, in assay [1], the “Emax (mIL-2 pg/ml), DO11.10-cCD137 T cell assay, crosslinked” value (“Emax (mIL-2 pg/ml)” below) was determined as 45700 pg/mL. Moreover, the binding result with GITR-hFc-Avi, with NGFR-Fc, in the assay with CD40-mFc, with DR6-Fc, with TNFRSF1B-Fc and with TNFRSF1A-Fc was “no binding (tested: 1 µM (protocol of Example 3.1))” throughout.

B2: FS20-22-49AA/FS30-35-14 (bispecific antibody, human IgG1, kappa, L234A L235A, V domains shown)
VH: EVQLLESGGGLVQPGGSLRLSCAASGFTFSAYNIHWVRQAPGKGLEWVSDISPYGGATNYADSVKGRFTISRDNSKNTLYLQMNSLRAEDTAVYYCARNLYELSAYSYGADYWGQGTLVTVSS
VL: EIVLTQSPGTLSLSPGERATLSCRASQSVSSSYLAWYQQKPGQAPRLLIYGASSRATGIPDRFSGSGSGTDFTLTISRLEPEDFAVYYCQQYYYSSPITFGQGTKVEIKR
notes: M100F (Kabat) to A against FS30-35; also called FS30-35-14 in mAb^2 format
Turning to B2, the “% CD137 ligand blocking activity” value in the assay with hCD137-mFc-Avi is 6.6%. Besides, the “DO11.10-hCD137 T cell activation assay EC50 (nM), crosslinked” value in [2] worked out at 6.3 nM. Besides, the “EC50 (nM), mIL-2 release” value in assay [1] is 6.6 nM. The “Emax (mIL-2 pg/ml)” value in [1] worked out at 69700 pg/mL. Further, the binding result with GITR-hFc-Avi, with NGFR-Fc, in the assay with CD40-mFc, in the assay with DR6-Fc, in the assay with TNFRSF1B-Fc and in the assay with TNFRSF1A-Fc was “no binding (tested: 1 µM (protocol of Example 3.1))” throughout.

B3: FS20-22-49AA/FS30-10-3 (bispecific antibody, human IgG1, kappa, L234A L235A, V domains shown)
VH: EVQLLESGGGLVQPGGSLRLSCAASGFTFSSYDMSWVRQAPGKGLEWVSDIDPTGSKTDYADSVKGRFTISRDNSKNTLYLQMNSLRAEDTAVYYCARDLNVYGFDYWGQGTLVTVSS
VL: EIVLTQSPGTLSLSPGERATLSCRASQSVSSSYLAWYQQKPGQAPRLLIYGASSRATGIPDRFSGSGSGTDFTLTISRLEPEDFAVYYCQQSYSYPVTFGQGTKVEIKR
notes: M97 (Kabat) to N against FS30-10; also called FS30-10-3 in mAb^2 format
In the case of B3, the “% CD137 ligand blocking activity” value in the assay with hCD137-mFc-Avi was found to be 49.4%. The “DO11.10-hCD137 T cell activation assay EC50 (nM), crosslinked” value in assay [2] turned out to be 4.8 nM. In addition, the “EC50 (nM), mIL-2 release” value in assay [1] was determined as 5 nM. In assay [1], the “Emax (mIL-2 pg/ml)” value was determined as 49400 pg/mL. For the same molecule, the binding result with GITR-hFc-Avi, with NGFR-Fc, with CD40-mFc, with DR6-Fc, in the assay with TNFRSF1B-Fc and with TNFRSF1A-Fc was “no binding (tested: 1 µM (protocol of Example 3.1))” in each case.

B4: FS20-22-49AA/FS30-10-16 (bispecific antibody, human IgG1, kappa, L234A L235A, V domains shown)
VH: EVQLLESGGGLVQPGGSLRLSCAASGFTFSSYDMSWVRQAPGKGLEWVSDIDPTGSKTDYADSVKGRFTISRDNSKNTLYLQMNSLRAEDTAVYYCARDLLVYGFDYWGQGTLVTVSS
VL: EIVLTQSPGTLSLSPGERATLSCRASQSVSSSYLAWYQQKPGQAPRLLIYGASSRATGIPDRFSGSGSGTDFTLTISRLEPEDFAVYYCQQSYSYPVTFGQGTKVEIKR
notes: M97 (Kabat) to L against FS30-10; also called FS30-10-16 in mAb^2 format
On to B4, for which the “% CD137 ligand blocking activity” value with hCD137-mFc-Avi was determined as 48.1%. Also, the “DO11.10-hCD137 T cell activation assay EC50 (nM), crosslinked” value in assay [2] was 3.7 nM. In addition, in [1], the “EC50 (nM), mIL-2 release” value was 3.7 nM. The “Emax (mIL-2 pg/ml)” value in assay [1] stood at 50100 pg/mL. Also, the binding result in the assay with GITR-hFc-Avi, with NGFR-Fc, with CD40-mFc, with DR6-Fc, with TNFRSF1B-Fc and with TNFRSF1A-Fc was “no binding (tested: 1 µM (protocol of Example 3.1))” in each case.

B5: FS20-22-49AA/FS30-10-12 (bispecific antibody, human IgG1, kappa, L234A L235A, V domains shown)
VH: EVQLLESGGGLVQPGGSLRLSCAASGFTFSSYDMSWVRQAPGKGLEWVSDIDPTGSKTDYADSVKGRFTISRDNSKNTLYLQMNSLRAEDTAVYYCARDLTVYGFDYWGQGTLVTVSS
VL: EIVLTQSPGTLSLSPGERATLSCRASQSVSSSYLAWYQQKPGQAPRLLIYGASSRATGIPDRFSGSGSGTDFTLTISRLEPEDFAVYYCQQSYSYPVTFGQGTKVEIKR
notes: M97 (Kabat) to T against FS30-10; also called FS30-10-12 in mAb^2 format
Consider B5, for which, in the assay with hCD137-mFc-Avi, the “% CD137 ligand blocking activity” value was 53.8%. Moreover, the “DO11.10-hCD137 T cell activation assay EC50 (nM), crosslinked” value in [2] was 4.5 nM. Further, in assay [1], the “EC50 (nM), mIL-2 release” value was 5.8 nM. Moreover, the “Emax (mIL-2 pg/ml)” value in [1] worked out at 46900 pg/mL. Also, the binding result in the assay with GITR-hFc-Avi, with NGFR-Fc, in the assay with CD40-mFc, in the assay with DR6-Fc, with TNFRSF1B-Fc and with TNFRSF1A-Fc was “no binding (tested: 1 µM (protocol of Example 3.1))” in each case.
